Laboratory results reported in patent US20120065146A1.
Non-standard residues stand in square brackets, D forms with d. No end group written: not given here. pT = C[C@@H](OP(=O)(O)O)[C@H](N)C(=O)O

Molecular target: HA-EGFP-Plk1, P53350
Assay: ELISA competition
Conditions: remark: other sources report otherwise

HA-EGFP-Plk1, P53350, sequence (P53350 whole entry): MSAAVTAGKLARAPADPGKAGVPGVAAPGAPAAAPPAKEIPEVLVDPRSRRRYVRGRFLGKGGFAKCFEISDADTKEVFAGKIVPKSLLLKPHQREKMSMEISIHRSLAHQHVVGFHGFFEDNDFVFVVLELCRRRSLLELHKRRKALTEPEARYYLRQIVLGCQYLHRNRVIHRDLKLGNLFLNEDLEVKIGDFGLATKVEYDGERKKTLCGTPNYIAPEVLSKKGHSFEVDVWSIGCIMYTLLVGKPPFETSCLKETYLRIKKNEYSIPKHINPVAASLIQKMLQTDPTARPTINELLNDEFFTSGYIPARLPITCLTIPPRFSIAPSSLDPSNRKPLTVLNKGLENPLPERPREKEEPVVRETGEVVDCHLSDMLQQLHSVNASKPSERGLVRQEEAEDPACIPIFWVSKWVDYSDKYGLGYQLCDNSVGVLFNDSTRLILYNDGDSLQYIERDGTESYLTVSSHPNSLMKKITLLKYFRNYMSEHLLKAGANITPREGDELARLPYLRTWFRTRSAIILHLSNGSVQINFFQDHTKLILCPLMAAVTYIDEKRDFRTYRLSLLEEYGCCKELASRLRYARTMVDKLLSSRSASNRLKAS

Binder | fold loss of binding affinity | fold decrease in binding against 3l
PLHA[pT] (also: Pro 1 modified as in ether analogue 7 (structure not given here)) [peptide 9 (Example 12), S/A mutant of 7] | > 100 fold | –
PLHA[pT] (also: Pro 1 modified as in ether analogue 8 (structure not given here)) [peptide 11 (Example 12), S/A mutant of 8] | > 100 fold | –
PLHA[pT] (also: further groups not given here) [peptide 5 (Example 15), S/A mutant of 3l] | – | 100 fold
